Assay results from patent US20060149521A1 (University of California, published 2006).

How the values were obtained:
hTRβ1 L454R, full-length = target: T1, hTRβ1 L454R, full-length (human, UniProt P10828 1-461, [35S]-Met labelled (in vitro translated)); experiment: GST-GRIP1 pull-down of [35S]-hTRβ1 with T3
T1 construct: range 1-461
T1 sequence (looked up): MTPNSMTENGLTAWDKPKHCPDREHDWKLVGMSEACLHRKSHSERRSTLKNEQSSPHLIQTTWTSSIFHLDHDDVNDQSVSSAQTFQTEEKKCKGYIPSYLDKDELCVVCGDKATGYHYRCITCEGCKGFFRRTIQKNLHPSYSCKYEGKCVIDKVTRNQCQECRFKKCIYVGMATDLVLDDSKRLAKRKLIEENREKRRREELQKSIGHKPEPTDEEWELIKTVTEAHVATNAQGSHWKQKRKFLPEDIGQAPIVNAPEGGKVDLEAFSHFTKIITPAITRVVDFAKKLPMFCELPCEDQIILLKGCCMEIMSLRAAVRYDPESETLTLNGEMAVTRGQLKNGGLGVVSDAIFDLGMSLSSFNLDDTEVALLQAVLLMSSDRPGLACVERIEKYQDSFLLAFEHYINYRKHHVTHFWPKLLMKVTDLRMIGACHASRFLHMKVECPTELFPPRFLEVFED

hTRβ1 E457K, full-length = target: T2, hTRβ1 E457K, full-length (human, UniProt P10828 1-461, [35S]-Met labelled (in vitro translated)); experiment: GST-GRIP1 pull-down of [35S]-hTRβ1 with T3
T2 construct: range 1-461
T2 sequence (looked up): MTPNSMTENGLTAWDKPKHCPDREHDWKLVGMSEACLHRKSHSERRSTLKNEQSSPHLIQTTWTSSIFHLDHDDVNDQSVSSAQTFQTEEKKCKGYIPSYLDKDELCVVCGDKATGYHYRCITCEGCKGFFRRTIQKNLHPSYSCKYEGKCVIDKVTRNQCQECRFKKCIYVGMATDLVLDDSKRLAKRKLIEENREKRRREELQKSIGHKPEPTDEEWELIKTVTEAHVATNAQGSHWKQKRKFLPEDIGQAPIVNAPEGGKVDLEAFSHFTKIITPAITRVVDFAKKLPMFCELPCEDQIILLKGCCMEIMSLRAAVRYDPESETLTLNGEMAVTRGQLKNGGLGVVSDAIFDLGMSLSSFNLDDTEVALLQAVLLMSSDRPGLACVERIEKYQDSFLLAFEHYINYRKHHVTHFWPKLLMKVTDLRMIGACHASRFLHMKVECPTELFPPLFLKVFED

binding result (hTRβ1 L454R, full-length): no binding
binding result (hTRβ1 E457K, full-length): no binding
B1: GST-GRIP1 (GRIP1 amino acids 721-1121) (other, mouse, UniProt Q61026 721-1121, looked up)
chain: STAPGSEVTVKQEPASPKKKENALLRYLLDKDDTKDIGLPEITPKLERLDSKTDPASNTKLIAMKTVKEEVSFEPSDQPGSELDNLEEILDDLQNSQLPQLFPDTRPGAPTGSVDKQAIINDLMQLTADSSPVPPAGAQKAALRMSQSTFNNPRPGQLGRLLPNQNLPLDITLQSPTGAGPFPPIRNSSPYSVIPQPGMMGNQGMLGSQGNLGNNSTGMIGSSTSRPSMPSGEWAPQSPAVRVTCAATTGAMNRPVQGGMIRNPTASIPMRANSQPGQRQMLQSQVMNIGPSELEMNMGGPQYNQQQAPPNQTAPWPESILPIDQASFASQNRQPFGSSPDDLLCPHPAAESPSDEGALLDQLYLALRNFDGLEEIDRALGIPELVSQSQAVDAEQFSSQE
notes: not shown: glutathione-S-transferase (GST) from the pGEX vector
